Source: patent US20250213686A1, “COMPOSITIONS AND METHODS FOR ENGINEERING TREG CELLS FOR TREATMENT OF DIABETES” (Seattle Children's Hospital (dba Seattle Children's …, priority 2021, published 2025)

What was measured:
Assay type in all cases: cell-based, human
[1] = test system: IGRP 305-324 or IGRP 241-260 peptide presented by HLA-DR4-expressing K562 cells; experiment: Cytokine production of TCR-transduced CD4+ T cells to cognate peptide; settings: 5 hours stimulation with cognate peptide, day 14
Procedure: (§1) FIGS. 29A-29E show editing of CD4+ T cells to express one of a panel of TCRs, and phenotypic characterization of edited cells.
On day 14, transduced CD4+ T cells were stimulated for 5 hours with cognate IGRP peptide in the presence of transduced K562 cells, and the production of cytokines IFN-γ and TNF-α to evaluate T cell activation (FIG. 29D).

[2] = test system: cognate peptide (IGRP305-324, IGRP241-260, PPI76-90) and APC; experiment: Peptide dose response (functional avidity) of TCR-transduced CD4+ T cells; settings: for IGRP305-324 peptide concentration at which proliferation was reached: T1D5-1: similar to about 70% proliferation, T1D2: proliferation only at this concentration
From the text: FIG. 39A depicts a graph showing peptide dose response of T cells expressing T1D2, T1D4, or PPI76 TCR. CD4+ T cells transduced with T1D2, T1D4, or PPI76 TCR were co-cultured with APC in the presence of various concentration of their cognate peptide, IGRP305-324, IGRP241-260, PPI76-90, respectively for 4 days. Representative of three independent experiments.
FIG. 39C depicts a graph showing peptide dose response of T cells expressing T1D2, T1D5-1, or T1D5-2 TCR. CD4+ T cells transduced with T1D2, T1D5-1 or T1D5-2 TCR were co-cultured with APC in the presence of various concentration of their cognate peptide, IGRP305-324 for 4 days. Representative of three independent experiments. For dose response of T cells in A and C, T cells were labeled with CTV before the co-culture and cell proliferation was measured by CTV dilution.
Therefore, these unique features were used as way to begin to explore the impact of TCR affinity on islet-specific EngTregs function. […] We measured proliferation of polyclonal islet-specific Teff in the presence of islet-specific peptides and mDC and EngTregs with T1D2, T1D4 or PPI76. The data were normalized by suppressive activity obtained from suppression assay set up in parallel using CD3/CD28 beads (FIG. 39G). This latter assay provided a baseline control for EngTreg function, as this activation method is not impacted by TCR avidity. […] We then compared T1D2, T1D5-1 and T1D5-2, each of which recognize the same cognate peptide, IGRP305-324, in the context of HLA-DR0401 (Table E6-1) (31). […] Similarly, we measured suppressive capacity of EngTregs expressing T1D2, T1D5-1, or T1D5-2 on proliferation of polyclonal islet Teff in response to islet-specific peptides.

[3] = test system: T1D2 TCR-expressing CD4+ T cells; experiment: Alanine-substituted and potential off-target peptide stimulation of T1D2 TCR cells
Procedure: FIGS. 31A-31D show tolerance of T1D2 to substitutions in IGRP 305-324 peptide. FIGS. 31A and 31B show activation of T1D2 TCR-expressing CD4+ T cells, as measured by CD154 expression intensity (FIG. 31A) or % CD137-expressing cells (FIG. 31B) in the presence of antigen-presenting cells pulsed with one of a panel of alanine-substituted peptides. T cells were cultured for 20 hours in the presence of HLA-DR4-expressing K562 cells that had been pulsed with IGRP 305-324 peptide, or one of a panel of peptides having an alanine substitution at different positions, and analyzed by flow cytometry. FIGS. 31C and 31D show activation of T1D2 TCR-expressing CD4+ T cells, as measured by CD154 expression intensity (FIG. 31C) or % CD137-expressing cells (FIG. 31D) in the presence of antigen-presenting cells pulsed with one of a panel of potential off-target peptides derived from pathogens of human relevance. “Control” indicates CD4+ T cells expressing ZNT266 TCR. […]
After 20 hours of co-culture, expression of surface markers CD154 and CD137 (among CD3+CD4+ cells) were analyzed by flow cytometry, to quantify the potential for off-target activation of cells expressing T1D2 TCR. […]

[4] = test system: IGRP 305-324 or IGRP 241-260 peptide presented by HLA-DR4-expressing K562 cells; experiment: Activation marker response of TCR-transduced CD4+ T cells to cognate peptide; settings: for cognate peptide concentration required for maximal surface marker expression: relative to cells expressing T1D5-1; for upregulation of functional markers CD154, CD69 and CD137: stimulation with cognate peptide overnight, day 8
Procedure: as §1
FIGS. 30A-30B show dose response of T1D TCR-expressing CD4+ T cells to stimulation with IGRP 305-324 peptide. Cells were cultured in the presence of HLA-DR4-expressing K562 cells for a 20 hours, and analyzed by flow cytometry. […] Dashed lines=50% maximum response of each cell population (by donor).
CD4+ cells were thawed and stimulated with anti-CD3/CD28 Dynabeads in vitro (day 0). On day 1 post-thawing, cells were inoculated with a lentivirus encoding a T1D2, T1D5-1, or T1D4 TCR (day 1). On day 3 post-thaw, Dynabeads were removed. In parallel, artificial antigen-presenting cells were generated by transducing K562 cells with a lentivirus encoding an HLA-DR4 capable of presenting IGRP 305-324 or IGRP 241-260. On day 7 post-thaw, transduced CD4+ T cells were stimulated by addition of a given amount of cognate IGRP peptide in the presence of transduced K562 cells and culture overnight. On day 8 post-thaw, expression of activation-associated markers CD69, CD137, and CD154 (FIG. 29B).
In another experiment, CD4+ T cells transduced with a lentivirus encoding T1D2 TCR or control TCR (ZNT266) were cultured in a 3:1 ratio with K562 cells pulsed with IGRP 305-324 peptide at a range of concentrations, as described in the preceding paragraph. After 20 hours of co-culture, expression of surface markers CD154 and CD137 were analyzed by flow cytometry, to quantify sensitivity of T1D2 TCR-expressing cells to cognate peptide IGRP 305-324.

[5] = IGRP 305-324, 20 hours co-culture, 3:1 with K562 cells

Row | EC50 of % CD137-expressing cells [4, 5] [µg/mL] | EC50 of CD154 expression [4, 5] [µg/mL] | Molecule | IFN-γ and TNF-α production [1] | IGRP305-324 peptide concentration at which proliferation was reached [2] [µg/mL] | functional avidity ([2]; comparison of T1D2, T1D4 and PPI76 TCR) | functional avidity ([2]; comparison of T1D2, T1D5-1 and T1D5-2 (same cognate peptide IGRP305-324)) | recognition of predicted potential off-target peptides derived from human pathogens [3] | sensitivity to stimulation with cognate peptide IGRP 305-324 ([4]; compared to cells expressing ZNT266 TCR) | cognate peptide concentration required for maximal surface marker expression [4] | upregulation of functional markers CD154, CD69 and CD137 [4] | cognate peptide concentration giving similar (more than 20%) proliferation [2] [µg/mL]
1 | 0.03 to 0.1 | 0.1 to 0.3 | T1D2 TCR: TCR specific to IGRP 305-324, HLA-DR0401 restricted; TCRα SEQ ID NO: 9, TCRβ SEQ ID NO: 10 (protein) alpha: MAMLLGASVLILWLQPDWVNSQQKNDDQQVKQNSPSLSVQEGRISILNCDYTNSMFDYFLWYKKYPAEGPTFLISISSIKDKNEDGRFTVFLNKSAKHLSLHIVPSQPGDSAVYFCAATRTSGTYKYIFGTGTRLKVLANIQNPDPAVYQLRDSKSSDKSVCLFTDFDSQTNVSQSKDSDVYITDKTVLDMRSMDFKSNSAVAWSNKSDFACANAFNNSIIPEDTFFPSPGKGSFGAFAGCFLASGMARFCPELWSMMSKTPLIGGLG beta: MSISLLCCAAFPLLWAGPVNAGVTQTPKFRILKIGQSMTLQCTQDMNHNYMYWYRQDPGMGLKLIYYSVGAGITDKGEVPNGYNVSRSTTEDFPLRLELAAPSQTSVYFCASSPWGAGGTDTQYFGPGTRLTVLEDLKNVFPPEVAVFEPSEAEISHTQKATLVCLATGFYPDHVELSWWVNGKEVHSGVSTDPQPLKEQPALNDSRYCLSSRLRVSATFWQNPRNHFRCQVQFYGLSENDEWTQDRAKPVTQIVSAEAWGRADCGFTSESYQQGVLSATILYEILLGKATLYAVLVSALVLMAMVKRKDSRG | dose-dependent manner | 3 | lowest functional avidity among the three TCRs | lowest functional avidity | does not recognize any | substantially more sensitive | Lower concentrations of cognate peptide were required | dose-dependent manner | 
2 |  |  | T1D4 TCR: TCR specific to IGRP 241-260; TCRα SEQ ID NO: 19, TCRβ SEQ ID NO: 20 (protein) alpha: MKSLRVLLVILWLQLSWVWSQKDQVFQPSTVASSEGAVVEIFCNHSVSNAYNFFWYLHFPGCAPRLLVKGSKPSQQGRYNMTYERFSSSLLILQVREADAAVYYCAVEDLNQAGTALIFGKGTTLSVSSNIQNPDPAVYQLRDSKSSDKSVCLFTDFDSQTNVSQSKDSDVYITDKTVLDMRSMDFKSNSAVAWSNKSDFACANAFNNSIIPEDTFFPSPGKGSFGAFAGCFLASGMARFCPELWSMMSKTPLIGGLG beta: MGSRLLCWVLLCLLGAGPVKAGVTQTPRYLIKTRGQQVTLSCSPISGHRSVSWYQQTPGQGLQFLFEYFSETQRNKGNFPGRFSGRQFSNSRSEMNVSTLELGDSALYLCASSLALGQGNQQFFGPGTRLTVLEDLKNVFPPEVAVFEPSEAEISHTQKATLVCLATGFYPDHVELSWWVNGKEVHSGVSTDPQPLKEQPALNDSRYCLSSRLRVSATFWQNPRNHFRCQVQFYGLSENDEWTQDRAKPVTQIVSAEAWGRADCGFTSESYQQGVLSATILYEILLGKATLYAVLVSALVLMAMVKRKDSRG | dose-dependent manner |  |  |  |  |  | Lower concentrations of cognate peptide were required | dose-dependent manner | 0.1
3 |  |  | T1D5-1 TCR: TCR specific to IGRP 305-324; TCRα SEQ ID NO: 29, TCRβ SEQ ID NO: 30 (protein) alpha: MLLITSMLVLWMQLSQVNGQQVMQIPQYQHVQEGEDFTTYCNSSTTLSNIQWYKQRPGGHPVFLIQLVKSGEVKKQKRLTFQFGEAKKNSSLHITATQTTDVGTYFCAGQTGANNLFFGTGTRLTVIPYIQNPDPAVYQLRDSKSSDKSVCLFTDFDSQTNVSQSKDSDVYITDKTVLDMRSMDFKSNSAVAWSNKSDFACANAFNNSIIPEDTFFPSPGKGSFGAFAGCFLASGMARFCPELWSMMSKTPLIGGLG beta: MGCRLLCCAVLCLLGAVPMETGVTQTPRHLVMGMTNKKSLKCEQHLGHNAMYWYKQSAKKPLELMFVYSLEERVENNSVPSRFSPECPNSSHLFLHLHTLQPEDSALYLCASSQEVGTVPNQPQHFGDGTRLSILEDLNKVFPPEVAVFEPSEAEISHTQKATLVCLATGFFPDHVELSWWVNGKEVHSGVSTDPQPLKEQPALNDSRYCLSSRLRVSATFWQNPRNHFRCQVQFYGLSENDEWTQDRAKPVTQIVSAEAWGRADCGFTSVSYQQGVLSATILYEILLGKATLYAVLVSALVLMAMVKRKDF | dose-dependent manner | 1.0 |  |  |  |  |  | dose-dependent manner | 
